Target: PARK2 (UniProt O60260)
Test: co-IP of Flag-PARK2 and Myc-BCL-2
Settings: reference: wild type Myc-BCL-2; sites S70

binding against the reference: lost
Substance: BCL-2 (from UniProt P10415) S70A
